Reference: US20220031830A1

Columns and labels:
[1] = target: 11MUTB Env trimer (SOSIP.664) derived from wtBG505 (HIV-1 BG505); assay: SPR (Biacore T200), SOSIP captured on 8ANC195 IgG, Fab injected, equilibrium fit 1:1
[2] = target: RC1 Env trimer (BG505-derived SOSIP.664 soluble gp140) (HIV-1 BG505); assay: as above

Fab of the common inferred germline (iGL) precursor of PGT121 and 10-1074
Kd [1]: 50 µM | Kd [2]: 50 µM
